According to publication PMC10548395:

Target: IQ∼Sec7PH fusion protein of IQSEC3 (not stated (human or rat cDNA cloned)) (UniProt Q9UPP2)
Test: ITC

Sequence of UniProt Q9UPP2 (Q9UPP2 whole entry, looked up, the tested form may be a part): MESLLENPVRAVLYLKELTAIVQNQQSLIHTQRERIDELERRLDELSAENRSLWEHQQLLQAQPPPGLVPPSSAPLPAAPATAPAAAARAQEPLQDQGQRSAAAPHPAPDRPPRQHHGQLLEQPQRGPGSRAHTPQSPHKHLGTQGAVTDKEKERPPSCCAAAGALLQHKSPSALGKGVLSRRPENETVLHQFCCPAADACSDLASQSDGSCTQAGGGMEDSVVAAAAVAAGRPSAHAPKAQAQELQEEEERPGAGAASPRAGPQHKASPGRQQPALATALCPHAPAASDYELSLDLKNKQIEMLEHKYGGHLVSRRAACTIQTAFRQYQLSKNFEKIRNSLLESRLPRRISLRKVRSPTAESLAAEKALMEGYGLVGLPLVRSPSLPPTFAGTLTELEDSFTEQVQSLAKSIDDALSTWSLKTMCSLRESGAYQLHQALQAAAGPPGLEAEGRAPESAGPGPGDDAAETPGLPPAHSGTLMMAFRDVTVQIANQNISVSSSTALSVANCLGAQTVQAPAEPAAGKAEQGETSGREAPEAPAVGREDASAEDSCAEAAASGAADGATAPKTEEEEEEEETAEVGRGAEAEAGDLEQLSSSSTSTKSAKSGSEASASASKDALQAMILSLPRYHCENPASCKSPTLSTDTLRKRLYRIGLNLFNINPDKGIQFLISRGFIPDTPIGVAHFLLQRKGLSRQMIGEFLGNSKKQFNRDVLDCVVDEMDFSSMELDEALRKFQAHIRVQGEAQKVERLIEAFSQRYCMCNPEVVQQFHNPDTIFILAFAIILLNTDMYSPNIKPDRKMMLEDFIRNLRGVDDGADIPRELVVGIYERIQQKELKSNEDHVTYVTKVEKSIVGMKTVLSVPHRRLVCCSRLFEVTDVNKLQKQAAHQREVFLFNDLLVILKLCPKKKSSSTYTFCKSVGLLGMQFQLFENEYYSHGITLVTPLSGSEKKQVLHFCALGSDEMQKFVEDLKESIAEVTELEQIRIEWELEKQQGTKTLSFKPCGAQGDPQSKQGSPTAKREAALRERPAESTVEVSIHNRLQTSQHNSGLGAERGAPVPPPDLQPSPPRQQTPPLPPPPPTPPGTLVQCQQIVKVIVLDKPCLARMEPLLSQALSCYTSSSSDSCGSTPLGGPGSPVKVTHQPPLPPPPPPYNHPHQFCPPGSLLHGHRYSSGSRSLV

Kd: 1 nM
Substance: calmodulin (CaM) (from UniProt P0DP25 2-149) (natural protein)
